Among the data in paper PMC8307404, “Crystal Structure-Guided Design of Bisubstrate Inhibitors and Photoluminescent Probes for Protein Kinases of the PIM Family” (Molecules, 2021) are remaining activity values, retold here.

Assay in all cases: Kinase profiling (radiometric filter-binding)
Assay type in all cases: biochemical

For data set [1], the target named is Aurora B (Homo sapiens, UniProt Q96GD4). Conditions: 1 µM inhibitor, read-out: Residual activity, %. The method in brief:
(§1)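 A 1 µM final dose of each inhibitor was profiled on human protein kinases; ATP was kept at or beneath the KM of every enzyme, and radiometric filter binding measured turnover, expressed as % of the inhibitor-free reaction.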

Data set [2] concerns the target T1, GCK (Homo sapiens, UniProt Q12851).
T1 sequence (Q12851 1-820): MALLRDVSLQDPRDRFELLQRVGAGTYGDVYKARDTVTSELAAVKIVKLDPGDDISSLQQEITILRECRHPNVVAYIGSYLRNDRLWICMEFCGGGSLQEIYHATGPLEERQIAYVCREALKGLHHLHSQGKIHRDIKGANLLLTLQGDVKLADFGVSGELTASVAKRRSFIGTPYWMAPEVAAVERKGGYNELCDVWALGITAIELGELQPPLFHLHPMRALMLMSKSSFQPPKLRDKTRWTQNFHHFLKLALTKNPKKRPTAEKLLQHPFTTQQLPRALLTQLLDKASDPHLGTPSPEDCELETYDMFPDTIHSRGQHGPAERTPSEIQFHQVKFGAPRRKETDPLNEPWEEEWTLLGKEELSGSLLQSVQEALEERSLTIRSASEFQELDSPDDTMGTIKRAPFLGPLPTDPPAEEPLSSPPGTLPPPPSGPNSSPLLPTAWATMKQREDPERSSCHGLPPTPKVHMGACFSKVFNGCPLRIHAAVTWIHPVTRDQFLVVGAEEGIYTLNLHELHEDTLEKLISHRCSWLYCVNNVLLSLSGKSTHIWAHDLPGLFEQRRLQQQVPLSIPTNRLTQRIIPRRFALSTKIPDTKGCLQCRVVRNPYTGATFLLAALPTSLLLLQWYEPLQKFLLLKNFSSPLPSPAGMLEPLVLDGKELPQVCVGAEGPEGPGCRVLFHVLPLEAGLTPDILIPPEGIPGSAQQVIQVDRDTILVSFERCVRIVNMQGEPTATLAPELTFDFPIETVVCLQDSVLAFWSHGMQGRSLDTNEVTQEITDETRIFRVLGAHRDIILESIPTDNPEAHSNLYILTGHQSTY
Conditions: 1 µM inhibitor, read-out: Residual activity, %. The method in brief: as §1

Data set [3] addresses HIPK2 (Homo sapiens, UniProt Q9H2X6). Conditions: HIPK2, 1 µM inhibitor; read-out: Residual activity, %. The method in brief:
as §1

The target in data set [4] is T2, IRAK4 (Homo sapiens, UniProt Q9NWZ3).
T2 sequence (Q9NWZ3 1-460): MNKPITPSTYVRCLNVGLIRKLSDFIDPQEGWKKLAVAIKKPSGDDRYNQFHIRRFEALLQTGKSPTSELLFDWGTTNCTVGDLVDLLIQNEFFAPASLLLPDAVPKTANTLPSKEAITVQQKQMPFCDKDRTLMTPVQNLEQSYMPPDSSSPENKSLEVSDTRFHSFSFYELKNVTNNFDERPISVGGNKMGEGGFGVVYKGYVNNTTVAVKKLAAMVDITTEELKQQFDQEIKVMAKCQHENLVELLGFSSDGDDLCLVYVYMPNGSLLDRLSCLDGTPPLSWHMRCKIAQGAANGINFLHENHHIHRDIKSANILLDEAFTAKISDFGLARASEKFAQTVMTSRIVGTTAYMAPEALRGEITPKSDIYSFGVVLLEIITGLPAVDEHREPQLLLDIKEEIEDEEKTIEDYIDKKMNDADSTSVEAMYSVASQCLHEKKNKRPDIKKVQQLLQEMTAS
The following applies: IRAK4, 1 µM inhibitor; read-out: Residual activity, %. The method in brief:
as §1

Data set [5] deals with IRR (Homo sapiens, UniProt P14616). Conditions: 1 µM inhibitor, read-out: Residual activity, %. The method in brief:
as §1

For data set [6], the target named is MAPKAP-K2 (Homo sapiens, UniProt P49137). The following applies: MAPKAP-K2, 1 µM inhibitor; read-out: Residual activity, %. The method in brief: as §1
Data set [7] addresses T3, MARK4 (Homo sapiens, UniProt Q96L34).
T3 sequence (Q96L34 1-752): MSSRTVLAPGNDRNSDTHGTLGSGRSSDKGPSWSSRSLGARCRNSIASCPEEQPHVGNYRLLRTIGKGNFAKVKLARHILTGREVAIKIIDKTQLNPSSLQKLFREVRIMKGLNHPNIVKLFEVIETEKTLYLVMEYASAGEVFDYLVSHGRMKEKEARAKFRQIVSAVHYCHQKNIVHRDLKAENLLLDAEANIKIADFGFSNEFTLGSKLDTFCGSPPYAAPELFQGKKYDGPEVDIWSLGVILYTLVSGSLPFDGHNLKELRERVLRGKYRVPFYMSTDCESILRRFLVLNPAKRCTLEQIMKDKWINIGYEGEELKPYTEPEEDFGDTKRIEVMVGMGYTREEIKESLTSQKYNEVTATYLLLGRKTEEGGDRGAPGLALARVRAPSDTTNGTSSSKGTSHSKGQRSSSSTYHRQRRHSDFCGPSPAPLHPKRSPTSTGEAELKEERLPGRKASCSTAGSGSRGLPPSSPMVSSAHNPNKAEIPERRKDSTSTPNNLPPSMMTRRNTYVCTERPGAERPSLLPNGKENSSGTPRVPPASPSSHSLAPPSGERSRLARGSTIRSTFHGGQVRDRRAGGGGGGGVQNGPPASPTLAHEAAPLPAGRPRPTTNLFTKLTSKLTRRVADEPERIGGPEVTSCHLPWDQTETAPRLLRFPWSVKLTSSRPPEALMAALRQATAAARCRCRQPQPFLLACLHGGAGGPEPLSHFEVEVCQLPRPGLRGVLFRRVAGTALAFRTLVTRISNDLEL
The following applies: MARK4, 1 µM inhibitor; read-out: Residual activity, %. Put shortly:
as §1

For data set [8], the target named is MNK2 (Homo sapiens, UniProt Q9HBH9). Conditions: MNK2, 1 µM inhibitor; read-out: Residual activity, %. The method in brief:
as §1

The target of data set [9] is PHK (Homo sapiens, UniProt Q16816). Conditions: 1 µM inhibitor, read-out: Residual activity, %. Put shortly: as §1
Data set [10] addresses PRK2 (Homo sapiens, UniProt Q16513). The following applies: PRK2, 1 µM inhibitor; read-out: Residual activity, %. The method in brief:
as §1

Data set [11] addresses IGF-1R (Homo sapiens, UniProt P08069). The following applies: 1 µM inhibitor, read-out: Residual activity, %. The method in brief:
as §1

Square brackets hold non-standard residues; d marks the D form. Peptide text beside a SMILES is read from it. * marks the point of attachment. X3 = O=C(CCCCCNCc1nc2c(sc3cc(Br)cnc32)c(=O)[nH]1)*

Sequence of MNK2 (Q9HBH9 whole entry): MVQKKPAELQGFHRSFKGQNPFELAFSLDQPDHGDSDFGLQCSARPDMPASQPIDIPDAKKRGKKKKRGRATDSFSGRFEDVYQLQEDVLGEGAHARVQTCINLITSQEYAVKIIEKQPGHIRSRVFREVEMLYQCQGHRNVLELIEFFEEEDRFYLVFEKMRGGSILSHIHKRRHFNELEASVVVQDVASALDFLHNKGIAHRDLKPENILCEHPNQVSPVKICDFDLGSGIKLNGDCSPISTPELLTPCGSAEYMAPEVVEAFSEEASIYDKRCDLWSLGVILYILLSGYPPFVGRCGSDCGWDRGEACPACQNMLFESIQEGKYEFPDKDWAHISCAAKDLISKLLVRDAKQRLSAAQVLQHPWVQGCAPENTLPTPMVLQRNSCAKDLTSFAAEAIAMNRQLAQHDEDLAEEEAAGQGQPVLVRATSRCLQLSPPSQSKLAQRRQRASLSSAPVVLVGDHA
Sequence of IGF-1R (P08069 31-1367): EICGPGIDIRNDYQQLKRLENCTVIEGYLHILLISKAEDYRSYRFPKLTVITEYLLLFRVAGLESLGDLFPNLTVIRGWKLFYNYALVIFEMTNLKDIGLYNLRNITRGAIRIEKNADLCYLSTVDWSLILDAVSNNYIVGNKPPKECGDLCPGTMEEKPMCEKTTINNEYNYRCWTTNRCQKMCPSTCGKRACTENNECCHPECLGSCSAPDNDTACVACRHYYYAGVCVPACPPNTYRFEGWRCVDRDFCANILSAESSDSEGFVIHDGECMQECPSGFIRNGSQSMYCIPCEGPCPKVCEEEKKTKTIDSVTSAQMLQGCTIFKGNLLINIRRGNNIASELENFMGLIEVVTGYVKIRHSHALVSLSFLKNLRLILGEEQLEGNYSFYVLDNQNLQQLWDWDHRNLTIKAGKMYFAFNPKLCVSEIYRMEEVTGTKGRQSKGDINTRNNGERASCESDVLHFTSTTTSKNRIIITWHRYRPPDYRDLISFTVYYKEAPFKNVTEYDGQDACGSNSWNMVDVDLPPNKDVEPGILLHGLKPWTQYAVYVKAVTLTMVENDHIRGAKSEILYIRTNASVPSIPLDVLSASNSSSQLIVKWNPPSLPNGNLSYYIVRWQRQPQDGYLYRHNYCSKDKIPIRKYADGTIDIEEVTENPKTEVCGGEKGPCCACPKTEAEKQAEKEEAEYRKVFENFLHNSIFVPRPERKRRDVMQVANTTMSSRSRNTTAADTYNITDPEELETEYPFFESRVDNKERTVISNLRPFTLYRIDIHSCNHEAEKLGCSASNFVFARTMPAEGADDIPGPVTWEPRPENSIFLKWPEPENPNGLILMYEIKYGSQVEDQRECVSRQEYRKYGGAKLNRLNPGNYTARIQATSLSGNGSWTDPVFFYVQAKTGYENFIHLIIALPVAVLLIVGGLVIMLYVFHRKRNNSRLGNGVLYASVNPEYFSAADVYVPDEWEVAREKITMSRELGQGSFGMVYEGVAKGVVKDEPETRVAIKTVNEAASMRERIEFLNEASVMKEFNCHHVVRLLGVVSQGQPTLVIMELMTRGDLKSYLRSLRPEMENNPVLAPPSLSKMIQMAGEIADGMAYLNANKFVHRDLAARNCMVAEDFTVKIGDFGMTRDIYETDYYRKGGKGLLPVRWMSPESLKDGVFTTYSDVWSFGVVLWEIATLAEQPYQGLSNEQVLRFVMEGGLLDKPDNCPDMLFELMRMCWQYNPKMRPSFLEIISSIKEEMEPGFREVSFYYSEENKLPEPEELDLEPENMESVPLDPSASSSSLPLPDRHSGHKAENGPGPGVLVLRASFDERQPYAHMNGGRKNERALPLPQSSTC
Sequence of HIPK2 (Q9H2X6 whole entry): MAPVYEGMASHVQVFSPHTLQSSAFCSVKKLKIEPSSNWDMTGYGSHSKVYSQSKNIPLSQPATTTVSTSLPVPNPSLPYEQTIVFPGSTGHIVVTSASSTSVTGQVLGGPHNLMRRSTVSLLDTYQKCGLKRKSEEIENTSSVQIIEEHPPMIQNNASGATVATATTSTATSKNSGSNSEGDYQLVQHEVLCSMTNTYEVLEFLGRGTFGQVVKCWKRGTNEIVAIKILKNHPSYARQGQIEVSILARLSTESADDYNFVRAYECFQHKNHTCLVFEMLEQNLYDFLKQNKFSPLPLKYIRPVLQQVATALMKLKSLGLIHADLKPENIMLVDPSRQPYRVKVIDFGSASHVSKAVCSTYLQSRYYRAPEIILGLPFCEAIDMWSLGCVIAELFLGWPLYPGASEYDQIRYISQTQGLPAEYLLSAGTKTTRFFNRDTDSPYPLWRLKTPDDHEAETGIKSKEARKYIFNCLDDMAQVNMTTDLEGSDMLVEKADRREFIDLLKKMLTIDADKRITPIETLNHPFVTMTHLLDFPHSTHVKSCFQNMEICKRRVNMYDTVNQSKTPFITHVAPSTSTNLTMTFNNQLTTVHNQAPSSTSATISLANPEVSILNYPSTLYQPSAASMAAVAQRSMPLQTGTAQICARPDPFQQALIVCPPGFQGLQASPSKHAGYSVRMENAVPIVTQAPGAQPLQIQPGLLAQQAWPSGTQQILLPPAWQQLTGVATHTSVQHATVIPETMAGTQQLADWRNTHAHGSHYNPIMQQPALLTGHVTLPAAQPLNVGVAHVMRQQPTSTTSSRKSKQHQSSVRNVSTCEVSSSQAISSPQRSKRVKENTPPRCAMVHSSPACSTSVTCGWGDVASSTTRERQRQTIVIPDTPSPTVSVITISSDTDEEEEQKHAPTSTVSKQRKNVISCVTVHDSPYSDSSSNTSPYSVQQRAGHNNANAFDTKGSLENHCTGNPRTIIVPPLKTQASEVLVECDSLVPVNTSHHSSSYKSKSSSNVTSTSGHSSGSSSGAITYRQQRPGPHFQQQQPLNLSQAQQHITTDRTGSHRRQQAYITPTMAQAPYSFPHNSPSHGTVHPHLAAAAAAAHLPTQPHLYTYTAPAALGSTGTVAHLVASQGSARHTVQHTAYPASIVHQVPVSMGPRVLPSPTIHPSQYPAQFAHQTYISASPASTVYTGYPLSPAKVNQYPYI
Sequence of IRR (P14616 27-1297): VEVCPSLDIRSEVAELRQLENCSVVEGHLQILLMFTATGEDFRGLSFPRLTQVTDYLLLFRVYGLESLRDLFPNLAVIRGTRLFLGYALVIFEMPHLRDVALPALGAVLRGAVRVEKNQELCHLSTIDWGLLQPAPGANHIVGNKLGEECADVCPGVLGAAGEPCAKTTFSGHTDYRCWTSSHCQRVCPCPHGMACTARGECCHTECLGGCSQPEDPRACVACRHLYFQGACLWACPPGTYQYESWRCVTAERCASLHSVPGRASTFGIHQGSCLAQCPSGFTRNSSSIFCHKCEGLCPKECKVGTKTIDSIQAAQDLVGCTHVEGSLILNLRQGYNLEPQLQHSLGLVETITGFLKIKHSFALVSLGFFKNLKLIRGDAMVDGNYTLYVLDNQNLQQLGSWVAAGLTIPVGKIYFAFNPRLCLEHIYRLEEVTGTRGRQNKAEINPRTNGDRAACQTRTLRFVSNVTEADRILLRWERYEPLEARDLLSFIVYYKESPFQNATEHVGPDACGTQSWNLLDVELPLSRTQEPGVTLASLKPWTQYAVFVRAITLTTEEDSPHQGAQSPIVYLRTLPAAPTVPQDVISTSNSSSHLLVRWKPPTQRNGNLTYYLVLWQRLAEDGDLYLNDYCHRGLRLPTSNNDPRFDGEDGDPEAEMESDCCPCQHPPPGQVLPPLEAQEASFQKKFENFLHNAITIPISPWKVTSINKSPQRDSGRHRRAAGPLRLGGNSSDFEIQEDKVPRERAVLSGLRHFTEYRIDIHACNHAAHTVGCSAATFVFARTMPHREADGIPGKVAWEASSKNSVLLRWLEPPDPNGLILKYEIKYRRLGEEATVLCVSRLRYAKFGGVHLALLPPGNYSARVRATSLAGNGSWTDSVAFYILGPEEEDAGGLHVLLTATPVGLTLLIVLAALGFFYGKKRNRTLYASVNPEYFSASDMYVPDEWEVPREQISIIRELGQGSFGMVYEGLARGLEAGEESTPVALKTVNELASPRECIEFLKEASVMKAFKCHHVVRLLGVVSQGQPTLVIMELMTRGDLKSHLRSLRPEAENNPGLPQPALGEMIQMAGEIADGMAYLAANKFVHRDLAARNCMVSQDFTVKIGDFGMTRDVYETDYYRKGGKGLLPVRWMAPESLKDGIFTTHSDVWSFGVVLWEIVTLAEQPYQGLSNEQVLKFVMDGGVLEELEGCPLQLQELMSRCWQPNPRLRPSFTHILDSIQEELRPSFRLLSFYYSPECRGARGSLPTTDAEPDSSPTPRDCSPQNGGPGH
Sequence of MAPKAP-K2 (P49137 whole entry): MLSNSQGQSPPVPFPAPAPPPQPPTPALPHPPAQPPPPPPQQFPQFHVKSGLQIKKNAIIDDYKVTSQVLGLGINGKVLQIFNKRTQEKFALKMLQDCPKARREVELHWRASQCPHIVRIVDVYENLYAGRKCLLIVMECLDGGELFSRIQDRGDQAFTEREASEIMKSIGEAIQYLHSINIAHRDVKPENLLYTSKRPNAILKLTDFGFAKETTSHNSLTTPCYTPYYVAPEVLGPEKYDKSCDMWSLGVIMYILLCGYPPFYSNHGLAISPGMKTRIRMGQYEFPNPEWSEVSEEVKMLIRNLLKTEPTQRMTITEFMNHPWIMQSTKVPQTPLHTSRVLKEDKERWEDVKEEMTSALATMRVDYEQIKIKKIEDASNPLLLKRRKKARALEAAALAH
Sequence of Aurora B (Q96GD4 whole entry): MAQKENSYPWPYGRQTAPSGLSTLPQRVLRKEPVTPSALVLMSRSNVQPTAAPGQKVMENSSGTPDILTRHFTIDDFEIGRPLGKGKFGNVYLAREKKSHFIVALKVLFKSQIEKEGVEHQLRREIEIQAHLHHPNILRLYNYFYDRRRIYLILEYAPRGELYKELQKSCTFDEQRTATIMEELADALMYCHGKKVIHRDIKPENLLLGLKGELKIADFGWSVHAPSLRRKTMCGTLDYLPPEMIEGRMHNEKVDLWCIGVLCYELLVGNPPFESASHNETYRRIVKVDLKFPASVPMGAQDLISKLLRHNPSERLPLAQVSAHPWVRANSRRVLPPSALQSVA

As to `N=C(N)NCCC[C@@H](NC(=O)CCCCCNC(=O)Cn1cnc2c(I)c(I)c(I)c(I)c21)C(=O)N[C@H](CCCNC(=N)N)C(=O)N[C@H](CCCNC(=N)N)C(=O)N[C@H](CCCNC(=N)N)C(=O)N[C@H](CCCNC(=N)N)C(=O)N[C@H](CCCNC(=N)N)C(=O)N[C@H](CCCCN)C(N)=O` [ARC-3125, TIBI-CH2-C(=O)-Ahx-(D-Arg)6-D-Lys-NH2], the remaining activity at 1 µM in data set [1] worked out at 100 ± 4%; in data set [2] it was 56 ± 4%; in [3], 16 ± 2%; in data set [4], 73 ± 2%; in [5], 20 ± 34%; in data set [6], 51 ± 5%. Moreover, the remaining activity at 1 µM stood at 92 ± 3% in [7], 19 ± 4% in data set [8], 104 ± 11% in data set [9] and 16 ± 6% in data set [10].
`N=C(N)NCCC[C@@H](NC(=O)CCCCCNCc1nc2c(sc3cc(Br)cnc32)c(=O)[nH]1)C(=O)N[C@H](CCCNC(=N)N)C(=O)N[C@H](CCCNC(=N)N)C(=O)N[C@H](CCCNC(=N)N)C(=O)N[C@H](CCCNC(=N)N)C(=O)N[C@H](CCCNC(=N)N)C(=O)N[C@H](CCCCN)C(N)=O` [ARC-3126, BPTP-Ahx-(D-Arg)6-D-Lys-NH2] (X3-[dR][dR][dR][dR][dR][dR][dK]-NH2): the remaining activity at 1 µM in data set [1] stood at 114 ± 20%; in data set [2], 88 ± 14%; in data set [3] it was 75 ± 15%; in [11], 114 ± 24%; in data set [4], 97 ± 2%; in [5] it was 75 ± 4%. Besides, the remaining activity at 1 µM in data set [7] came to 119 ± 7%; in data set [8], 84 ± 17%; in data set [9], 128 ± 10%; in data set [10] it was 58 ± 15%.
In the case of `N=C(N)NCCC[C@@H](NC(=O)CNC(=O)[C@@H](CCCNC(=N)N)NC(=O)[C@@H](CCCNC(=N)N)NC(=O)CCCCCCCNCc1nc2c(sc3cc(Br)cnc32)c(=O)[nH]1)C(=O)N[C@H](CCCCN)C(N)=O` [Compound 1, BPTP-Aoc-(D-Arg)2-Gly-D-Arg-D-Lys-NH2], the remaining activity at 1 µM was 102 ± 19% in data set [1]; 112% in [2]; 103 ± 13% in data set [3]; 77 ± 8% in data set [11]; 110 ± 3% in data set [4]; 99 ± 2% in data set [5]. For the same compound, the remaining activity at 1 µM came to 107 ± 10% in data set [6]; 124 ± 14% in [7]; 80 ± 3% in [8]; 109 ± 3% in data set [9]; 92 ± 2% in data set [10].
Turning to `N=C(N)NCCC[C@@H](NC(=O)CNC(=O)[C@@H](CCCNC(=N)N)NC(=O)[C@@H](CCCNC(=N)N)NC(=O)CCCCCCCNCc1nc2c(sc3ccc(Br)cc32)c(=O)[nH]1)C(=O)N[C@H](CCCCN)C(N)=O` [Compound 2, BBTP-Aoc-(D-Arg)2-Gly-D-Arg-D-Lys-NH2], the remaining activity at 1 µM in data set [1] worked out at 98 ± 2%; in data set [2], 114 ± 2%; in data set [3] it was 48 ± 2%; in data set [11], 91 ± 6%; in data set [4], 108 ± 8%; in [5], 99 ± 5%. Further, the remaining activity at 1 µM in data set [6] turned out to be 107 ± 2%; in data set [7], 128 ± 3%; in [8], 47 ± 2%; in data set [9], 98 ± 4%; in data set [10], 94 ± 12%.
In the case of `N=C(N)NCCC[C@@H](NC(=O)CNC(=O)[C@@H](CCCNC(=N)N)NC(=O)[C@@H](CCCNC(=N)N)NC(=O)Cn1cc(CNCc2nc3c(sc4ccc(Br)cc43)c(=O)[nH]2)nn1)C(=O)N[C@H](CCCCN)C(N)=O` [Compound 3, BBTP-Amt-(D-Arg)2-Gly-D-Arg-D-Lys-NH2], the remaining activity at 1 µM in data set [1] is 111 ± 1%; in [2], 97 ± 7%; in data set [3] it was 50 ± 7%; in data set [11] it was 58 ± 7%; in data set [4], 107 ± 7%; in data set [5] it was 110 ± 1%. The remaining activity at 1 µM came out at 114 ± 4% in data set [6]; 90 ± 12% in [7]; 96 ± 10% in data set [8]; 78 ± 6% in [9]; 67 ± 4% in [10].
